Two substances from US20050130287A1, “Purifying process of soluble proteins of the l.obliqua bristles through prothrombin activation: process for a partial determination of the amino acids sequence of the prothrombin activator; process for determining the prothrombin activation of fraction II, n-terminal and internal fragments sequences” (priority 2002, published 2005) can be followed below.

For one series, the target named is prothrombin (UniProt P00734).
The target of series [1] is purified human fibrinogen (UniProt P02671).
Another series concerns T1, Abz-YQTFFNPRTFGSQ-EDDnp.
T1 sequence: YQTFFNPRTFGSQ

Factor Xa registered a Coagulation Time (S) of fibrinogen, with Ca2+ with prothrombin of 120 s.
In the series with prothrombin, “Lonomia obliqua Prothrombin Activator Protease (Lopap)” had a Coagulation Time (S) of fibrinogen, with Ca2+ of 60 s and a Coagulation Time (S) of fibrinogen, without Ca2+ of 240 s. Also, in the series with Factor X, the “Factor X activation, hydrolysis of S-2765” value is “Lopap did not present capacity of activating factor X” and the “Factor X activation, hydrolysis of S-2765 (p-nitroaniline formed)” value was “When Factor X (30 nM) was added to the experiment, the substrate hydrolysis obtained was of 2,6 µM”. Also, the “Coagulation Time (S) of fibrinogen, without Factor II” value in series [1] is “Lopap + / F II - / FG +: >1200”. Further, in the series on Abz-YQTFFNPRTFGSQ-EDDnp, the Kcat entry is reported as “Kcat 5,32 sec^-1”, the Kcat/Kmapp entry is reported as “Kcat/K mapp 1,2×106 M^-1 sec -1” and the Kmapp entry is “Kmapp 4,5 µM”.
